According to article PMC6102255, “EPO does not promote interaction between the erythropoietin and beta-common receptors” (Scientific Reports, 2018):

Experiments:
[1] = target: extracellular domains of the erythropoietin receptor (EPOR), in-house purified (UniProt P19235); test: MST; EPOR labelled with DyLight 650 (30 nM), unlabelled EPOR titrated (0.05-1700 nM); 50 mM Tris, 10 mM MgCl2, 150 mM NaCl, 0.05% Tween 20, pH 7.5; 60% laser power; homodimer to monomers, no EPO
[2] = target: the molecule itself; test: AUC; sedimentation velocity, 20 °C, 50,000 rpm, 10 mM HEPES, 500 mM NaCl pH 7.2; single proteins (EPO 3 μM; EPOR 1.5, 3, 6 μM; βc 0.75, 1.5, 3 μM) and mixtures of two (EPO + EPOR; βc + EPOR)

Kd [1] [nM]	Molecule	stoichiometry N [2]
166	extracellular domains of the erythropoietin receptor (EPOR), in-house purified (from UniProt P19235 25-250) (domain or fragment)	–
–	extracellular regions of the beta-common (βc) receptor, in-house purified (domain or fragment, UniProt P32927 17-443, looked up, biotin (EZ link sulfo-NHS biotin) when immobilised in SPR; unmodified otherwise, beta common receptor (βc, shared subunit of the GM-CSF, IL-3 and IL-5 receptors), extracellular regions; Used in SEC, MST, SPR and AUC; Plasmid donated by Dr. Timothy Hercus; purification details are in the Supplementary data; also called βc homodimer; CD131) WERSLAGAEETIPLQTLRCYNDYTSHITCRWADTQDAQRLVNVTLIRRVNEDLLEPVSCDLSDDMPWSACPHPRCVPRRCVIPCQSFVVTDVDYFSFQPDRPLGTRLTVTLTQHVQPPEPRDLQISTDQDHFLLTWSVALGSPQSHWLSPGDLEFEVVYKRLQDSWEDAAILLSNTSQATLGPEHLMPSSTYVARVRTRLAPGSRLSGRPSKWSPEVCWDSQPGDEAQPQNLECFFDGAAVLSCSWEVRKEVASSVSFGLFYKPSPDAGEEECSPVLREGLGSLHTRHHCQIPVPDPATHGQYIVSVQPRRAEKHIKSSVNIQMAPPSLNVTKDGDSYSLRWETMKMRYEHIDHTFEIQYRKDTATWKDSKTETLQNAHSMALPALEPSTRYWARVRVRTSRTGYNGIWSEWSEARSWDTESVLPMW	2
